The term stoichiometry N denotes the number of molecules, sites or subunits per partner or assembly.

Drawing on article doi:10.1101/2024.08.24.609485, this text covers stoichiometry N for one substance.

This assay concerns the target GST-N-WASP-PRD (human) (UniProt O00401). Put plainly: mass photometry.

The substance “GST-N-WASP-PRD (from UniProt O00401 261-332) (domain or fragment)” registered a stoichiometry N of 2.
